T1: FcγRIIb (UniProt P31994 46-217, limits assumed)
T1 sequence (looked up): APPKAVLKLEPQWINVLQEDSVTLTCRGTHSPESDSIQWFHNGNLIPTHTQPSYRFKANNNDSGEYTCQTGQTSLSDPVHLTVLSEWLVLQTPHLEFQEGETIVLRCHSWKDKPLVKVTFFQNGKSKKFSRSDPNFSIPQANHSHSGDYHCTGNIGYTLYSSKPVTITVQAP


Experiments:
FcγRIIb = molecular target: T1, FcγRIIb; experiment: BLI (Octet)
Method: (§1) Binding of complement-preferential stradomers or parent stradomer G045c to FcγRI, FcγRIIb, FcγRIIIa, FcγRIIa, or FcRn was assessed. RU values of dissociation were measured by biolayer interferometry using a ForteBio Octet instrument. His-tagged receptor proteins were bound to the sensor tip in 1× kinetic analysis buffer from ForteBio after which the on rate of the receptor/protein was measured by transferring the sensor tip to a 1× kinetics buffer containing the purified stradomer of choice. Off rate was measured by transferring the sensor tip to a 1× kinetics buffer, and RU value was calculated from the measured maximum binding using the ForteBio software. Biolayer interferometry detects the binding between a ligand immobilized on the biosensor tip surface and an analyte in solution. When binding occurs it produces an increase in optical thickness at the biosensor tip, which results in a wavelength shift (detected as a response unit of “RU”). The maximum binding level (RU max) is the maximum possible amount of sample binding at equilibrium that saturates the amount of ligand on the sensor surface. The RU 300 is the residual sample binding after 300 seconds of dissociation and is useful to characterize the rate of dissociation of the test article from the test ligand.
(§2) For each stradomer in Tables 5-9, the level of canonical FcγR binding, complement C1q binding, and CDC inhibition were determined according to the methods described in Example 1.

FcγRI = molecular target: T2, FcγRI (UniProt P12314 16-288); experiment: BLI (Octet)
T2 construct: also called CD64
Method: as §1, §2

C1q = C1q (UniProt P02745 23-245; P02746 28-253; P02747 29-245); experiment: cell-based or functional assay
C1q, sequence (P02745 23-245 limits assumed, chain 1 of 3): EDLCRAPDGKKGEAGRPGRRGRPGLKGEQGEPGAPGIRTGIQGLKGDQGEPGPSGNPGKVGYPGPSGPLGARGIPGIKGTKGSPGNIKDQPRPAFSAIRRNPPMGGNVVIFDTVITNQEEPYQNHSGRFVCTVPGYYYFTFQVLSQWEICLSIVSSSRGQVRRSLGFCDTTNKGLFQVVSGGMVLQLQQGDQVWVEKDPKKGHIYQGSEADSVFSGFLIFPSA
C1q, sequence (P02746 28-253 limits assumed, chain 2 of 3): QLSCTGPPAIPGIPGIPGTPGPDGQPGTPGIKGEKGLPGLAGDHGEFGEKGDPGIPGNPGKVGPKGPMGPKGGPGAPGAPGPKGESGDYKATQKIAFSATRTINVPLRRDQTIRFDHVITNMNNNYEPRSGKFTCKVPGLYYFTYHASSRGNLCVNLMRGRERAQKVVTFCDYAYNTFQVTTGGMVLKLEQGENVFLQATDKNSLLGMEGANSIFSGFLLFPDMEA
C1q, sequence (P02747 29-245 limits assumed, chain 3 of 3): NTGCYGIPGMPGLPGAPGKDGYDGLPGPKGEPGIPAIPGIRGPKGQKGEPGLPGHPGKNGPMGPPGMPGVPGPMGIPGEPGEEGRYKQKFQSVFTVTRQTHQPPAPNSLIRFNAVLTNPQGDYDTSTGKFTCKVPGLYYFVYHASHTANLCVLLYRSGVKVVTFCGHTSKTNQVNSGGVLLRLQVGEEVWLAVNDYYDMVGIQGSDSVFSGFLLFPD

T2 sequence (P12314 16-288 limits assumed): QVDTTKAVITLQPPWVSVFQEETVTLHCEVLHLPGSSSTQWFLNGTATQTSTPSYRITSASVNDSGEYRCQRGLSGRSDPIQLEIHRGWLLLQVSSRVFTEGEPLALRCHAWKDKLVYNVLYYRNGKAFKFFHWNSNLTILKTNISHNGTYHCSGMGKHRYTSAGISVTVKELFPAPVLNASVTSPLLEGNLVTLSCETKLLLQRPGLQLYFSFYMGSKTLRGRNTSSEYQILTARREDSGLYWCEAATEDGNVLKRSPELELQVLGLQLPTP

Row | binding result (FcγRIIb) | binding result (FcγRI) | CDC Inhibition (EC50, µg/mL) (C1q) [µg/mL] | Binder
1 | binds | binds |  | G1068 (Fc fusion, G045c background, S267E/H268F/S324T/T299A; leader 1-20 cleaved) EPKSCDKTHTCPPCPAPELLGGPSVFLFPPKPKDTLMISRTPEVTCVVVDVEFEDPEVKFNWYVDGVEVHNAKTKPREEQYNSAYRVVSVLTVLHQDWLNGKEYKCKVTNKALPAPIEKTISKAKGQPREPQVYTLPPSRDELTKNQVSLTCLVKGFYPSDIAVEWESNGQPENNYKTTPPVLDSDGSFFLYSKLTVDKSRWQQGNVFSCSVMHEALHNHYTQKSLSLSPGKERKCCVECPPCP
2 |  | binds |  | G1121 (Fc fusion, G045c background, E233P/G236D/S267K/H268F/S324T; leader 1-20 cleaved) EPKSCDKTHTCPPCPAPPLLDGPSVFLFPPKPKDTLMISRTPEVTCVVVDVKFEDPEVKFNWYVDGVEVHNAKTKPREEQYNSTYRVVSVLTVLHQDWLNGKEYKCKVTNKALPAPIEKTISKAKGQPREPQVYTLPPSRDELTKNQVSLTCLVKGFYPSDIAVEWESNGQPENNYKTTPPVLDSDGSFFLYSKLTVDKSRWQQGNVFSCSVMHEALHNHYTQKSLSLSPGKERKCCVECPPCP
3 |  | binds |  | G1106 (Fc fusion, G045c background, E233P/G236K/H268F/S324T; leader 1-20 cleaved) EPKSCDKTHTCPPCPAPPLLKGPSVFLFPPKPKDTLMISRTPEVTCVVVDVSFEDPEVKFNWYVDGVEVHNAKTKPREEQYNSTYRVVSVLTVLHQDWLNGKEYKCKVTNKALPAPIEKTISKAKGQPREPQVYTLPPSRDELTKNQVSLTCLVKGFYPSDIAVEWESNGQPENNYKTTPPVLDSDGSFFLYSKLTVDKSRWQQGNVFSCSVMHEALHNHYTQKSLSLSPGKERKCCVECPPCP
4 | binds | binds |  | G1118 (Fc fusion, G045c background, E233P/G236Q/S267Q/H268F/S324T; leader 1-20 cleaved) EPKSCDKTHTCPPCPAPPLLQGPSVFLFPPKPKDTLMISRTPEVTCVVVDVQFEDPEVKFNWYVDGVEVHNAKTKPREEQYNSTYRVVSVLTVLHQDWLNGKEYKCKVTNKALPAPIEKTISKAKGQPREPQVYTLPPSRDELTKNQVSLTCLVKGFYPSDIAVEWESNGQPENNYKTTPPVLDSDGSFFLYSKLTVDKSRWQQGNVFSCSVMHEALHNHYTQKSLSLSPGKERKCCVECPPCP
5 | binds | binds |  | G1130 (Fc fusion, G045c background, E233P/G236N/S267K/H268F/S324T; leader 1-20 cleaved) EPKSCDKTHTCPPCPAPPLLNGPSVFLFPPKPKDTLMISRTPEVTCVVVDVKFEDPEVKFNWYVDGVEVHNAKTKPREEQYNSTYRVVSVLTVLHQDWLNGKEYKCKVTNKALPAPIEKTISKAKGQPREPQVYTLPPSRDELTKNQVSLTCLVKGFYPSDIAVEWESNGQPENNYKTTPPVLDSDGSFFLYSKLTVDKSRWQQGNVFSCSVMHEALHNHYTQKSLSLSPGKERKCCVECPPCP
6 | binds | binds |  | G1128 (Fc fusion, G045c background, E233P/G236K/S267N/H268F/S324T; leader 1-20 cleaved) EPKSCDKTHTCPPCPAPPLLKGPSVFLFPPKPKDTLMISRTPEVTCVVVDVNFEDPEVKFNWYVDGVEVHNAKTKPREEQYNSTYRVVSVLTVLHQDWLNGKEYKCKVTNKALPAPIEKTISKAKGQPREPQVYTLPPSRDELTKNQVSLTCLVKGFYPSDIAVEWESNGQPENNYKTTPPVLDSDGSFFLYSKLTVDKSRWQQGNVFSCSVMHEALHNHYTQKSLSLSPGKERKCCVECPPCP
7 | binds | binds |  | G1124 (Fc fusion, G045c background, E233P/G236K/S267K/H268F/S324T; leader 1-20 cleaved) EPKSCDKTHTCPPCPAPPLLKGPSVFLFPPKPKDTLMISRTPEVTCVVVDVKFEDPEVKFNWYVDGVEVHNAKTKPREEQYNSTYRVVSVLTVLHQDWLNGKEYKCKVTNKALPAPIEKTISKAKGQPREPQVYTLPPSRDELTKNQVSLTCLVKGFYPSDIAVEWESNGQPENNYKTTPPVLDSDGSFFLYSKLTVDKSRWQQGNVFSCSVMHEALHNHYTQKSLSLSPGKERKCCVECPPCP
8 | binds | binds |  | G1092 (Fc fusion, G045c background, S267D/H268F/S324T/T299A; leader 1-20 cleaved) EPKSCDKTHTCPPCPAPELLGGPSVFLFPPKPKDTLMISRTPEVTCVVVDVDFEDPEVKFNWYVDGVEVHNAKTKPREEQYNSAYRVVSVLTVLHQDWLNGKEYKCKVTNKALPAPIEKTISKAKGQPREPQVYTLPPSRDELTKNQVSLTCLVKGFYPSDIAVEWESNGQPENNYKTTPPVLDSDGSFFLYSKLTVDKSRWQQGNVFSCSVMHEALHNHYTQKSLSLSPGKERKCCVECPPCP
9 | binds | binds |  | G1089 (Fc fusion, G045c background, E233P/G236R/H268F/S324T; leader 1-20 cleaved) EPKSCDKTHTCPPCPAPPLLRGPSVFLFPPKPKDTLMISRTPEVTCVVVDVSFEDPEVKFNWYVDGVEVHNAKTKPREEQYNSTYRVVSVLTVLHQDWLNGKEYKCKVTNKALPAPIEKTISKAKGQPREPQVYTLPPSRDELTKNQVSLTCLVKGFYPSDIAVEWESNGQPENNYKTTPPVLDSDGSFFLYSKLTVDKSRWQQGNVFSCSVMHEALHNHYTQKSLSLSPGKERKCCVECPPCP
10 |  | binds | 5 | G1082 (Fc fusion, G045c background, E233P/G236H/H268F/S324T; leader 1-20 cleaved) EPKSCDKTHTCPPCPAPPLLHGPSVFLFPPKPKDTLMISRTPEVTCVVVDVSFEDPEVKFNWYVDGVEVHNAKTKPREEQYNSTYRVVSVLTVLHQDWLNGKEYKCKVTNKALPAPIEKTISKAKGQPREPQVYTLPPSRDELTKNQVSLTCLVKGFYPSDIAVEWESNGQPENNYKTTPPVLDSDGSFFLYSKLTVDKSRWQQGNVFSCSVMHEALHNHYTQKSLSLSPGKERKCCVECPPCP
11 |  | binds |  | G1069 (Fc fusion, G045c background, H268F/S324T/N297A; leader 1-20 cleaved) EPKSCDKTHTCPPCPAPELLGGPSVFLFPPKPKDTLMISRTPEVTCVVVDVSFEDPEVKFNWYVDGVEVHNAKTKPREEQYASTYRVVSVLTVLHQDWLNGKEYKCKVTNKALPAPIEKTISKAKGQPREPQVYTLPPSRDELTKNQVSLTCLVKGFYPSDIAVEWESNGQPENNYKTTPPVLDSDGSFFLYSKLTVDKSRWQQGNVFSCSVMHEALHNHYTQKSLSLSPGKERKCCVECPPCP
12 | binds | binds |  | G1074 (Fc fusion, G045c background, S267D/H268F/S324T/N297A; leader 1-20 cleaved) EPKSCDKTHTCPPCPAPELLGGPSVFLFPPKPKDTLMISRTPEVTCVVVDVDFEDPEVKFNWYVDGVEVHNAKTKPREEQYASTYRVVSVLTVLHQDWLNGKEYKCKVTNKALPAPIEKTISKAKGQPREPQVYTLPPSRDELTKNQVSLTCLVKGFYPSDIAVEWESNGQPENNYKTTPPVLDSDGSFFLYSKLTVDKSRWQQGNVFSCSVMHEALHNHYTQKSLSLSPGKERKCCVECPPCP
13 |  | binds | 15 | G1075 (Fc fusion, G045c background, S267Q/H268F/S324T/N297A; leader 1-20 cleaved) EPKSCDKTHTCPPCPAPELLGGPSVFLFPPKPKDTLMISRTPEVTCVVVDVQFEDPEVKFNWYVDGVEVHNAKTKPREEQYASTYRVVSVLTVLHQDWLNGKEYKCKVTNKALPAPIEKTISKAKGQPREPQVYTLPPSRDELTKNQVSLTCLVKGFYPSDIAVEWESNGQPENNYKTTPPVLDSDGSFFLYSKLTVDKSRWQQGNVFSCSVMHEALHNHYTQKSLSLSPGKERKCCVECPPCP
14 |  | binds |  | G1120 (Fc fusion, G045c background, E233P/G236R/S267Q/H268F/S324T; leader 1-20 cleaved) EPKSCDKTHTCPPCPAPPLLRGPSVFLFPPKPKDTLMISRTPEVTCVVVDVQFEDPEVKFNWYVDGVEVHNAKTKPREEQYNSTYRVVSVLTVLHQDWLNGKEYKCKVTNKALPAPIEKTISKAKGQPREPQVYTLPPSRDELTKNQVSLTCLVKGFYPSDIAVEWESNGQPENNYKTTPPVLDSDGSFFLYSKLTVDKSRWQQGNVFSCSVMHEALHNHYTQKSLSLSPGKERKCCVECPPCP

— patent US20250011433A1 (GLIKNIK, published 2025)
